For assay [1], the system named is G-CSF transcript in BMDM. Description: Cytokine transcript induction in BMDM (RT-PCR, real-time PCR). The format is cell-based, mouse. Particulars: SAA 1 μM. As to the method:
To investigate the mechanism for SAA-induced G-CSF production, the level of G-CSF transcript in SAA-stimulated BMDM was determined. […] The induction of G-CSF transcript peaked at 4 h after SAA stimulation. Since transcription of the G-CSF gene involves NF-κB binding to the RelA/p65 consensus element in the CK-1 site of the G-CSF promoter (Dunn et al., 1994; Hareng and Hartung, 2002), the role of NF-κB in SAA-stimulated G-CSF expression was determined. […] Using oligonucleotide probe based on the sequence of the CK-1 site (−161 to −152 in the G-CSF promoter), a protein •DNA complex (FIG. 2C) was identified. […] Inclusion of a RelA/p65 antibody blocking peptide in the assay abrogated the immunoprecipitation (FIG. 2D).
TLR2 mediates the effect of SAA in G-CSF expression and neutrophila: To further determine a role of TLR2 in SAA-stimulated G-CSF expression and neutrophilia, wild-type and tlr2^−/− BMDM were stimulated with SAA (1 μM) and the level of G-CSF transcript (FIG. 5A) was determined. SAA induced a 37-fold induction of the mouse G-CSF transcript within 2 h of stimulation. […] Under similar experimental conditions, SAA stimulated increases in the transcripts of M-CSF (encoded by csf1; 11-fold over basal) IL-12p40 (33-fold) and IL-1 receptor antagonist (2.7-fold). In tlr2^−/− BMDM, the SAA-stimulated induction of these transcripts was reduced by 84% (M-CSF), 86% (IL-12p40), and 80% (IL-1 receptor antagonist), respectively. […] The effects of TLR2 gene deletion on SAA-induced G-CSF production and neutrophilia were determined in vivo. Subcutaneous injection of SAA was carried out in wild-type and tlr2^−/− mice for up to 7 days.
Measurement of G-CSF expression: To measure the secreted G-CSF from human monocytes and mouse macrophages in vitro, cells were placed in serum-free DMEM medium and stimulated with the indicated ligands. Cell-free supernatants were collected by centrifugation at 1,000×g for 30 sec and assayed for human or mouse G-CSF using ELISA. Human PBMC were used as 2×10^6 cells/ml/sample, and mouse BMDM were seeded at 10^6 cells/ml and used as 0.5 ml/sample. To measure mouse plasma G-CSF, blood samples were collected and centrifuged at 1,000-2,000×g for 10 min at 4° C. Plasma samples were appropriately diluted and then checked for G-CSF concentration using ELISA. To measure mouse G-CSF transcripts, mouse […] (10^6 cells/ml, 5 ml/sample) were stimulated with 1 μM SAA for different periods of time. Total RNA was isolated with an RNeasy isolation kit (Qiagen) and cDNA was prepared with Superscript reverse transcriptase (Invitrogen). PCR amplification of G-CSF transcripts was accomplished with specific primers (F346: 5′-[…]-3′ (SEQ ID NO:3) and R980: 5′-CAGGGCTCACTGATTT TTTGG-3′) (SEQ ID NO:4), generating a 634-bp fragment. M-actin gene (a 469 bp fragment) was used for verification of equal loading and of RT-PCR efficiency. Real-time quantitative PCR was performed on a ABI PRISM 7000 Sequence Detection System (Applied Biosystems) as described previously (He et al., 2006). All data were analyzed with the ABI PRISM 7000 SDS software (version 1.1). Relative level of mRNA for G-CSF was determined by normalizing with β-actin mRNA level. The sequences of the primers used are: F229 (5′-[…]-3′) (SEQ ID NO:5) and R502 (5′-[…]-3′) (SEQ ID NO:6) for G-CSF and F413 (5′-CCCTAAGGCCAACCGTGAA-3′) (SEQ ID NO:7) and R882 (5′-[…]-3′) (SEQ ID NO:8) for β-actin.

Assay [2] relates to C57BL/6 mice. Description: SAA-induced neutrophilia in mice. The format is in vivo, mouse. How it is done: SAA stimulates neutrophilia through G-CSF: To investigate whether SAA-induced G-CSF secretion contributes to neutrophilia, in vivo studies were conducted with daily administration of SAA in mice. C57BL/6 mice were injected subcutaneously (s.c.) with a daily dose of 120 μg SAA/kg body weight (˜3 μg of SAA each mouse) for 7 consecutive days. At different time points after the injection was initiated, blood neutrophil numbers were determined and the results were compared to neutrophil numbers prior to SAA administration. […] To establish a causal relationship between SAA-induced G-CSF production and neutrophilia in mice, wild-type C57BL/6 mice wre compared with csf3^−/− mice for changes in neutrophil count.
SAA-induced neutrophilia: For analysis of SAA-induced neutrophil increase, SAA was injected subcutaneously into both G-CSF deficient (csf3^−/−) (n=5) and csf3^+/+ (n=5), age- and sex-matched littermates (8-9 weeks, male), at doses of 120 μg/kg/d in 200 μl PBS. SAA was administered daily for 7 consecutive days (168 h). Blood samples were collected before and at 48, 120, and 168 h after the initial SAA injection. Age and sex-matched mice of both tlr2^−/− (n=7) and C57BL/6 (n=7) were also used for this experiment. Blood was collected by eye puncture using heparinized capillaries and placed into EDTA-treated tubes. Total white blood cell (WBC) count and WBC differential count were determined using a Hemavet 950FS multispecies hematology analyzer (Drew Scientific).

B1: SAA: Recombinant human SAA purchased from PeproTech; major acute-phase protein of 104 amino acids (protein, UniProt P0DJI8 19-122, looked up)
Serum amyloid A-1 protein: RSFFSFLGEAFDGARDMWRAYSDMREANYIGSDKYFHARGNYDAAKRGPGGAWAAEVITDARENIQRFFGHGAEDSLADQAANEWGRSGKDPNHFRPAGLPEKY
Regarding B1, in assay [1], the “reduction of G-CSF transcript induction in tlr2−/− vs wild-type BMDM” value is recorded as 94%, the “reduction of IL-1 receptor antagonist transcript induction in tlr2−/− BMDM” value is listed as 80%, the “reduction of IL-12p40 transcript induction in tlr2−/− BMDM” value is reported as 86% and the “reduction of M-CSF transcript induction in tlr2−/− BMDM” value is 84%. Further, the “time of peak induction of G-CSF transcript” value in assay [1] (BMDM, RT-PCR) came to 4 h. Further, the “induction of G-CSF transcript over basal level” value in assay [1] (tlr2−/− BMDM) was found to be 2 fold. Besides, in assay [1] (wild-type BMDM), the “increase in IL-1 receptor antagonist transcript” value amounted to 2.7 fold, the “increase in IL-12p40 transcript” value is on record as 33 fold and the “increase in M-CSF transcript over basal” value is 11 fold. Besides, in assay [1] (wild-type BMDM, within 2 h, real-time PCR), the “induction of mouse G-CSF transcript” value is 37 fold. In assay [2] (C57BL/6 mice, SAA 120 μg/kg s.c. daily for 7 days, vs PBS, from 48 h), the “peripheral blood neutrophil numbers” value was “significant rise of neutrophil numbers”. Further, the “SAA-stimulated increase in peripheral blood neutrophils in tlr2−/− mice vs wild-type” value in assay [2] (SAA s.c. up to 7 days) is on record as “significantly lower”. For the same molecule, in assay [2] (csf3−/− mice, SAA 120 μg/kg/d s.c., 48, 120 and 168 h), the “peripheral blood neutrophil count response in csf3−/− mice vs wild-type” value is given as “significantly reduced response”.

The values above are taken from patent publication US7629135B2, “Toll-like receptor agonists and antagonists and methods of use thereof” (The Board of Trustees of the University of Illinois, priority 2006, dated 2009).
